# B1: BMP-4: bone morphogenetic protein 4 (Peprotech) (protein, UniProt P12644 293-408, looked up)
# Bone morphogenetic protein 4: SPKHHSQRARKKNKNCRRHSLYVDFSDVGWNDWIVAPPGYQAFYCHGDCPFPLADHLNSTNHAIVQTLVNSVNSSIPKACCVPTELSAISMLYLDEYDKVVLKNYQEMVVEGCGCR
# Test system: human pluripotent stem cells cultured in feeder free conditions
# Test: Corneal epithelial differentiation of pluripotent stem cells cultured in feeder free conditions
# Assay type: cell-based
# Experimental: Feeder-free culture, xeno-free culture of human pluripotent stem cells was based on the use of recombinant Laminin-521 (Biolamina, Sweden) extracellular matrix protein coating and defined, xeno-free culture medium, the Essential 8™ Flex Medium (Life Technologies). The pluripotent stem cells were transferred to the culture system from the standard feeder cell based culture system by manually cutting undifferentiated colony parts with scalpel and plating to ln-521 coated (0.75-1.8 μg/cm^2 overnight at +4° C.) culture plates. The cells are allowed to grow near confluency with medium changed 3-4 times a week, and passaged with TrypLE™ Select Enzyme as single cells twice a week.
# Differentiation of pluripotent stem cells cultured on feeder cells to corneal epithelial cells with the induction method disclosed in EP 2828380 comprising TGF-beta inhibitor, Wnt inhibitor and a fibroblast growth factor (10 μM SB-505124+10 μM IWP-2, 50 ng/ml bFGF), followed by differentiation in Cnt-30 epithelial medium on collagen IV matrix, yielded at best >90% p63 positive cells with correct corneal epithelial morphology.
# However, prominent neuronal differentiation and cell detachment was recurrently observed as the induction method disclosed in EP 2828380 was used.
# The human pluripotent stem cells cultured in the feeder free culture system as described above were differentiated to corneal epithelial cells by detaching the pluripotent cells with TrypLE™ Select Enzyme for 4 min at +37° C. On Day 0, embryoid bodies were created with overnight incubation with 5 μM Blebbistatin (Sigma, B05601) or 10 μM Y-27632 dihydrochloride (R&D Systems, 1254) in a xeno-free culture medium containing: Knockout-Dulbecco's Modified Eagle's Medium (ko-DMEM) supplemented with 15% Xeno-Free Knockout Serum Replacement (XF-ko-SR), 2 mM GlutaMax (all from ThermoFisher Scienfic), 1% MEM Eagle Non-Essential Amino acid solution (NEAA, Cambrex Bio Science), 50 U/ml penicillin/streptomycin (Cambrex Bio Science), 0.1 mM ß-mercaptoethanol (ThermoFisher Scienfic). […]
Molecule,"cell survival on omitting the substance from the first phase induction medium (IWP-2 omitted from induction medium, collagen IV + laminin-521 matrix)",corneal epithelial cell morphology and marker expression (25 ng/ml BMP-4 for 2 to 3 days after initial induction),"epithelial morphology and marker expression after additional induction (BMP-4 induction (induction phase 3) after SB-505124/bFGF induction, total of 20-30 days of differentiation)"
"Cc1ccc2nc(NC(=O)CSc3nc4c(c(=O)n3-c3ccccc3)SCC4)sc2c1 [IWP-2, reference compound]",notably enhanced cell survival,,
B1,,best result of most cells with correct corneal epithelial cell morphology and marker expression,best result with most cells having correct epithelial morphology and marker expression
